These sequences were tested on K4 kissing-loop RNA reporter (assay: apparent KD of K4 kissing-loop reporter; higher = weaker reporter binding). Conditions: Eterna round: R107; input ligand: none.
Method: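 RNA-MaP round R107: designed RNA switches with theophylline, tryptophan, arginine or FMN aptamers are transcribed on-chip within common flanks. They are titrated with a labelled K4 kissing-loop RNA reporter in RNA-MaP buffer (100 mM Tris pH 7.5, 80 mM KCl, 4 mM MgCl2), without ligand or with the indicated ligand. Median apparent KD per design.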
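Also: bound reporter read as fluorescence of individual clusters on recovered sequencing chips by microscopy, with normalized cluster intensities fitted with a binding model.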

Sequence	apparent KD of K4 kissing-loop reporter [nM]
UUAGCAGUAUACUGCAAGACCUAUACUGAUACCAGAGUCAAUUGACUCCCUUGGCAGCGGAUCGAGUGAUGUUCGUAAGGUCAUU [AK4.2 SS Theophylline A]	955
GGUGCGGGCUCGGCCGCCACUCCCGCGGGUCGUAAGGUCCGCUACUGAGUGAUGUUCGGUUGGAGGAGGACCGGGAGCCCGUGCC [#2 Exclusion - Tryptophan B Attempt #19 (HarryS)]	106
AACCAGCUUACUGUAAGCUGGUUGCUGGAUACCAGCUCGGAAACGAGCCCUUGGCAGCCAGAACUUGCAGUGAUGUUGCAAGUAA [Design11]	157
GUUGGGUGGGUUAAAGAAUUUGUCUGACAACGAGGACCGGUACGGCCGCCACUCGAGUGAUGUUCGAGAAGAAAGAAAGAAAGAA	95.4
AACGGCCAGUCGGCCGCCACUCCAAGCAGUGAUGUUGCUAAGUUUCUAAAAGAGUGAUGUUCUUAGAGGACCGGGACUGAUGUAA [Exclusion Tryptophan B Gf 6]	154
AAUUUUAAUAAUAAAUAAUAAAUAAAUGAUACCAGUAUUUUUUUUUACCCUUGGCAGCAUAUAUAAGGGCAGUGAUGUUGCCAAA [Same State - Theophylline A]	119
AGUGAUAUAUGAGGAUAUGGGUUUGUUAAUGAGUUAGUUUUAGUGUUGUUUGGUUAGUGAUGUUAUUUAGAAGGCGUGAGUGAUG [vkkjkjmullin]	79.9
UAUGGAGUGAUGUUCCGUAUGACUGUCGAUACCAGCCUGUGCCUUGGCCCUUGGCAGCGAAAAGCAUCGGCUAAUGUCGCGUCAU [Onaraed]	194
UCAAGAGAACUUAAAUUUGAUCAACGCUCGCGAGGACCGGUACGGCCGCCACUCGACCGUUAGUGCCUCAUCCAGUGAUGUUGGG [theeternabot_sameState_KL_Trp_A_6]	500
AUCGUUGUCUGAGGAUAUCGAUUAACUGUAGUGAUGUUACAGAAAAUUCAUAUAAUAUUUUCUAUUCGAGAAGGCAGACUACGUA [JR_ExcFMNB_Sub017]	144
AAGAGCUAGGCGGCCGCCACUAGAUGUGAACACAUACAAGCCAGUGAUGUUGGUAUGAUGGACAGUAGGACCGGGCCUAGCUGAA [Exclusion - Tryptophan B (Freestyle 9)]	407
AGACUACCACACUGUCAAUAGACAGUGAACUAGGAUAUGCUGAUAAGCAGAAGGAGUGAUGUUCCUAGGUAGUCAAUAAAAUAAU [FmnAX 13 #SwitchBubble #StaticStem #K4Early]	383
GGCUUGCCAGUGAUGUUGGCAUAUUCUGAAGGAGCGCGUGAAAACGCAGGUAGGUCGCAGAACCUUGCCAACUAUUUUAGUUGCC [Ex Arginine A K4 26]	237
CUAUCCCGCCGUGUACGUAAUAUACGGUGCCGAGGACCGGUACGGCCGCCACUCGAUAAGCUUUGUCGGAGUGAUGUUCCGACCG [Maais]	229
GCACUCGAAAGAGUGCCUCUCGCCAUCACGUAGGAUAUCUGGAAACAGAGAAGGAUGGCAGUGAUGUUGCUUUCGAUGGCGAGAG	180
GAUUGUGAUGGAAACAUCGCAAUCUCUGAAGGAGCGCGUGAAAACGCAGGUAGGUCGCAGGACGACUUUGACAGUGAUGUUGUCG [Ex Arginine A K4 4]	201
AAGUGUGUGGCGGCCGCCACUAGAAUCCAGUGAUGUUGGAAUAAUCAAAUAAAUAAUAAUAAACAUAGGACCGGGCCAUAUAGAA [Same State - Tryptophan B (Freestyle 1)]	145
AUGCGCGCGGCGGCCGCCACUCGCAUGAGAGUGAUGUUCUCGCCGUGACCGUAAGGUCGCGGUGUGAGGACCGGGCCGGGCUGCG [#2 Same State - Tryptophan B Attempt #22 (HarryS)]	69.7
ACAGUCGGCUGUGAUACCAGUCGUAUAACAACAUGUUGCAGUGAUGUUGCGAGAUAGGAUGACCCUUGGCAGCACUCAGUACGAC [Same State Theophylline B GF11]	248
AAAUGAAGGGCUCGCAGUGAUGUUGCGAGACGAGGACCGGUACGGCCGCCACUCGGCCGCUACUUUGACUCGGGCUUUAAGCUAC [Usarusteer]	145
UGAUACCAGACGGCCGCCACUGCGCCAGUCAAUGACUGAGCGCGGUGGCGCUCAGUGAUGUUGAGCAGGACCGGGUCUGGUAUCU [Mod of Eli's TrypBX 8 v5]	146
CCAUCGCUAUUCGAUACCAGCUACUUAGUGAUGUUAAGUUAAAAUCCACUGUAGGUGGAAAGCCCUUGGCAGCGAAUAGUGAUGG [Theophylline B K4 23]	205

Same assay, conditions: Eterna round: R107; input ligand: theophylline 20 uM

Sequence	apparent KD of K4 kissing-loop reporter [nM]
UUUUUAAACUCGGCCGCCACUCAAAUGGGAGUGAUGUUCCCAAAAUAAUAAAUAAAUAAUAAUAAGAGGACCGGGAGAAAUUUUU [Same State - Trytophan B]	94.8
GAUAAUAGAAUAGAUACCAGUCAAGACCUAGUGAUGUUAGGGAGAUAAGUAGAAUGAAUUGGCCCUUGGCAGCUAUAAUAGUAGG [Default title]	129
GCCGUACGCAUGGAUACCAGCUAUUAGAGUGAUGUUCUAUGGCCCUGCCAAUGGAGCUGUAGCCCUUGGCAGCCAUGCGUACGGC	105
GGGAGUAGUGCGGCCGCCACUGAGAAAGUAGAAGAAUAUAGUGAUGUUAUAUAGGAAUAAAAGAACAGGACCGGGCAUUAGAUUU [SSTRyptB.U]	203
AUAAACUUGCAGUGAUGUUGCAAGUAAGACUAGGAUAUCAGGAAACUGAGAAGGAGUCAUCUCCUUCAAACAUCACUAUGAAGGA [[K1]-[K2]-[F1]-[F2]-[F]'-[K]'-[F]''_Design5]	413
